Results on one molecule are retold here after article PMC2211892.

The assay addresses StcE′ E435D-His (Escherichia coli O157:H7) (UniProt O82882). The assay can be described thus: flow cytometry on cells.

B1: C1 esterase inhibitor (C1-INH), purified (natural protein)
chain: NPNATSSSSQDPESLQDRGEGKVATTVISKMLFVEPILEVSSLPTTNSTTNSATKITANTTDEPTTQPTTEPTTQPTIQPTQPTTQLPTDSPTQPTTGSFCPGPVTLCSDLESHSTEAVLGDALVDFSLKLYHAFSAMKKVETNMAFSPFSIASLLTQVLLGAGENTKTNLESILSYPKDFTCVHQALKGFTTKGVTSVSQIFHSPDLAIRDTFVNASRTLYSSSPRVLSNNSDANLELINTWVAKNTNNKISRLLDSLPSDTRLVLLNAIYLSAKWKTTFDPKKTRMEPFHFKNSVIKVPMMNSKKYPVAHFIDQTLKAKVGQLQLSHNLSLVILVPQNLKHRLEDMEQALSPSVFKAIMEKLEMSKFQPTLLTLPRIKVTTSQDMLSIMEKLEFFDFSYDLNLCGLTEDPDLQVSAMQHQTVLELTETGVEAAAASAISVARTLLVFEVQQPFLFVLWDQQHKFPVFMGRVYDPRA
B1 displayed a fold level of C1-INH on erythrocyte surfaces against StcE′-His of 22 fold.
